Assay results: PMC10246530

Assays:
[1] = molecular target: T1, SARS-CoV-2 nucleocapsid NTD (WT) (SARS-CoV-2 (reference genome …, UniProt P0DTC9 44-180)); experiment: NMR; SL4ext-like; stability confirmed by aSEC; conditions: protein: recombinant, tags: cleaved tag, one artificial N-terminal Gly left
[2] = molecular target: T1, SARS-CoV-2 nucleocapsid NTD (WT); experiment: EMSA; 1 mM Mg2+, yeast tRNA; apparent; conditions: protein: recombinant, tags: cleaved tag, one artificial N-terminal Gly left, label: 5'-32P in EMSA
[3] = molecular target: T1, SARS-CoV-2 nucleocapsid NTD (WT); experiment: EMSA; conditions: protein: recombinant; tags: cleaved tag; one artificial N-terminal Gly left; label: 5'-32P in EMSA; branched stem-loops
[4] = molecular target: T1, SARS-CoV-2 nucleocapsid NTD (WT); experiment: ITC; low-salt; conditions: protein: recombinant; tags: cleaved tag; one artificial N-terminal Gly left; hairpin with 3' ss extension
[5] = molecular target: T2, SARS-CoV-2 nucleocapsid NTD (WT) (SARS-CoV-2 (reference genome …, UniProt P0DTC9 44-180)); experiment: ITC; conditions: protein: recombinant; tags: cleaved tag; one artificial N-terminal Gly left; label: 5'-32P in EMSA; hairpin
[6] = molecular target: T2, SARS-CoV-2 nucleocapsid NTD (WT); experiment: ITC; low-salt; NTD titrated to RNA; conditions: protein: recombinant; tags: cleaved tag; one artificial N-terminal Gly left; label: 5'-32P in EMSA; hairpin
[7] = molecular target: T1, SARS-CoV-2 nucleocapsid NTD (WT); experiment: NMR; intermediate exchange; conditions: protein: recombinant; tags: cleaved tag; one artificial N-terminal Gly left; labile hairpin, Tm 36.5 C
[8] = molecular target: T1, SARS-CoV-2 nucleocapsid NTD (WT); experiment: NMR; SL4ext-like; conditions: protein: recombinant; tags: cleaved tag; one artificial N-terminal Gly left

B1: P3_B (structured_RNA)
RNA: GCCUAAUCUUUACAAAAUGCAAAGA
- binding result ([1]; labile hairpin): binds

B2: P3 (structured_RNA)
RNA: GCGUGGCAACCGGGUGUUGCUAUGCCUAAUCUUUACAAAAUGCAAAGA
- binding result ([1]; tandem stem-loops): binds

B3: SL2+3 (structured_RNA)
RNA: GGCUUUCGAUCUCUUGUAGAUCUGUUCUCUAAACGAACUUUAA
- apparent K (half saturation) ([2]; two stem-loops): ~10 µM

B4: SL5 (structured_RNA)
RNA: GGUCGUUGACAGGACACGAGUAACUCGUCUAUCUUCUGCAGGCUGCUUACGGUUUCGUCCGUGUUGCAGCCGAUCAUCAGCACAUCUAGGUUUCGUCCGGGUGUGACCGAAAGGUAAGAUGGAGAGCCUUGUCCCUGGUUUCAACGAGAA
- binding result [3]: binds

B5: SL1_extSL1 (structured_RNA)
RNA: GGUUUAUACCUUCCCAGGUAACAAACCAACCAACUUUC
- Kd [4]: 87 µM

B6: SL4 (structured_RNA)
RNA: GGGUGUGGCUGUCACUCGGCUGCAUGCUUAGUGCACUCACGCCC
- Kd [5]: 53 µM
- Kd [6]: 64 µM

B7: SL4ext (SL4_extSL4) (structured_RNA)
RNA: GGUCUGUGUGGCUGUCACUCGGCUGCAUGCUUAGUGCACUCACGCAGUAUAAUUAAUAACUAAUUACUG
- apparent K (half saturation) ([2]; 15N-U/G for RNA-observed NMR, hairpin with 3' labile extension): ~5 µM

B8: Ext (ssRNA)
RNA: GGAUAAUUAAUAACUAAUUACU
- binding result [7]: binds

B9: P2 (structured_RNA)
RNA: GGAUGAAGAUUUUCAAGAAAACUGGAACACUAA
- binding result [8]: binds
